Where two headings read alike, the source gives them in different places.
How the values were obtained:
[1] = biological target: T1, monkey IL-12 (macaque) (macaque, UniProt P48091 23-219; P48095 23-328); experiment: cell-based or functional assay
T1 sequence (looked up) 1: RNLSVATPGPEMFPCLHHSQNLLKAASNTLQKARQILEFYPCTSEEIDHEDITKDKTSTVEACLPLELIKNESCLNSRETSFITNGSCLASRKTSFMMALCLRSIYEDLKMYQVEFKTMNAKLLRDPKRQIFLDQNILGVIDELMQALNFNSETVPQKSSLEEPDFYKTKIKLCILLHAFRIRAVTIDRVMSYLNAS
T1 sequence (looked up) 2: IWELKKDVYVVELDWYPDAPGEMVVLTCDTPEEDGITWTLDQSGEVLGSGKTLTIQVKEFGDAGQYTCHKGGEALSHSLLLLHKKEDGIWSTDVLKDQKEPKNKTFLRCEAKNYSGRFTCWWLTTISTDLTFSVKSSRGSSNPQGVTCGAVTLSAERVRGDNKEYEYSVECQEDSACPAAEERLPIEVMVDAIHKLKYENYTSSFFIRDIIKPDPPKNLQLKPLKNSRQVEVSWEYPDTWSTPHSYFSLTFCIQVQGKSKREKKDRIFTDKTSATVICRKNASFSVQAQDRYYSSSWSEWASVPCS

[2] = biological target: T2, human dimeric IL-23 (eBiosciences 34-8239) (human, UniProt P29460 23-328; Q9NPF7 20-189); experiment: cell-based or functional assay
T2 sequence (looked up) 1: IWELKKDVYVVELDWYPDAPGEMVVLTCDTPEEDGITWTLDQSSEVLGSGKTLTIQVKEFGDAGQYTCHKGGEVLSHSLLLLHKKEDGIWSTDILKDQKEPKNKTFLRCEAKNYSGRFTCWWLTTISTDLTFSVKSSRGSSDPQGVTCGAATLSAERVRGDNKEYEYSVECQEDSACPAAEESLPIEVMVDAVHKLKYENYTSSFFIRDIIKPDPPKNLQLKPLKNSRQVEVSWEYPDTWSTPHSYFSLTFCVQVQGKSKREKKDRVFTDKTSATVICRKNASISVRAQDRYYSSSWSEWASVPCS
T2 sequence (looked up) 2: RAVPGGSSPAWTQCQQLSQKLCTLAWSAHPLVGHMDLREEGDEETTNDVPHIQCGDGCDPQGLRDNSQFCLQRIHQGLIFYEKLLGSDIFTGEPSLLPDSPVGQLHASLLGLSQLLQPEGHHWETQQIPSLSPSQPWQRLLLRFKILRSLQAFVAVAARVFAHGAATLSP

[3] = biological target: T1, monkey IL-12 (macaque); experiment: cell-based or functional assay; remark: listed apart in the source
[4] = biological target: T2, human dimeric IL-23 (eBiosciences …); experiment: SPR; format for the anti-IL-23 scFv alone not described
[5] = biological target: T2, human dimeric IL-23 (eBiosciences …); experiment: cell-based or functional assay; remark: listed apart in the source
[6] = biological target: T3, human IL-12 (human, UniProt P29459 23-219; P29460 23-328); experiment: ELISA, human IL-12 coated on the plate; antibody concentration not given [Binding to Human IL-12]
T3 construct: Bioassay used Prospec-Tany Cyt-362
T3 sequence (looked up) 1: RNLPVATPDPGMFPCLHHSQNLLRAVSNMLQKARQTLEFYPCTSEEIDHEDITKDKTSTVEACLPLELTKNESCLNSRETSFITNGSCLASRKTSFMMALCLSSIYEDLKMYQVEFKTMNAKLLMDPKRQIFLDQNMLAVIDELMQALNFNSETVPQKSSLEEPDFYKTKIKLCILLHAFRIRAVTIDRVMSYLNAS
T3 sequence (looked up) 2: T2 sequence (looked up) 1

[7] = biological target: T2, human dimeric IL-23 (eBiosciences …); experiment: cell-based or functional assay; remark: listed apart in the source
[8] = biological target: T4, IL-23 p40-p19-His (human); experiment: ELISA on IL-23 p40-p19-His
T4 construct: Single-chain fusion coated on the IL-23 ELISA plates; also called p40:p19-6×HIS
T4 chain: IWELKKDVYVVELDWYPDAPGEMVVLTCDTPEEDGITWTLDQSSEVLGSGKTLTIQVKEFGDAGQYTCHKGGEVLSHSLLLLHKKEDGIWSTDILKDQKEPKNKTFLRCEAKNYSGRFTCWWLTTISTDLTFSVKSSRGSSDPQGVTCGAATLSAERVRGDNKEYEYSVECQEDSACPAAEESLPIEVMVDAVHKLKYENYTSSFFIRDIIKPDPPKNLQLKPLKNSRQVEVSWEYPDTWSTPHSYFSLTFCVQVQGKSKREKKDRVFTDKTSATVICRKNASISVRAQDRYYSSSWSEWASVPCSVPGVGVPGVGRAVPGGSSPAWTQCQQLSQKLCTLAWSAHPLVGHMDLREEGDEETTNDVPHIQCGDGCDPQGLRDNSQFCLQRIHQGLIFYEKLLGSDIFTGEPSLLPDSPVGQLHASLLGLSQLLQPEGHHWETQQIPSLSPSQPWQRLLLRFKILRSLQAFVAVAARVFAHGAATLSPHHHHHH

[9] = biological target: T3, human IL-12; experiment: IL-12 binding assay of the selection not described
[10] = biological target: T5, primate IL-23 (p40:p19 fusion, 6×HIS) (primate); experiment: cell-based or functional assay
T5 chain: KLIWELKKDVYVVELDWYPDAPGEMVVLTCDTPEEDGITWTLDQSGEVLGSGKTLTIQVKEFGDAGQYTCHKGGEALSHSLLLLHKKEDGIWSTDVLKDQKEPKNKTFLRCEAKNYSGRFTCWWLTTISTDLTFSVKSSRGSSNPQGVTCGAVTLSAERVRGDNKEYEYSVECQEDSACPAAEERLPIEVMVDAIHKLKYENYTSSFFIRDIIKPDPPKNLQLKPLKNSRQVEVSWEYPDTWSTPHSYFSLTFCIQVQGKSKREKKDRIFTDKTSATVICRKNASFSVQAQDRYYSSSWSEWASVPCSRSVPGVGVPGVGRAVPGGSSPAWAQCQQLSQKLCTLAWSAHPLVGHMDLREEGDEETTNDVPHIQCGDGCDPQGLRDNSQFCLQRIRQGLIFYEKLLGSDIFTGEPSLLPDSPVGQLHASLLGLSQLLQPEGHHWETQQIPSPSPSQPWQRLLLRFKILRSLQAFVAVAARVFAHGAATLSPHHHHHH

[11] = biological target: T2, human dimeric IL-23 (eBiosciences …); experiment: cell-based or functional assay; remark: listed apart in the source
[12] = biological target: T6, human IL-6 (human, UniProt P05231 30-212); experiment: cell-based or functional assay
[13] = biological target: T7, Primate IL-6 (Macaca mulatta, UniProt P51494); experiment: cell-based or functional assay
T7 sequence (cytokine, looked up): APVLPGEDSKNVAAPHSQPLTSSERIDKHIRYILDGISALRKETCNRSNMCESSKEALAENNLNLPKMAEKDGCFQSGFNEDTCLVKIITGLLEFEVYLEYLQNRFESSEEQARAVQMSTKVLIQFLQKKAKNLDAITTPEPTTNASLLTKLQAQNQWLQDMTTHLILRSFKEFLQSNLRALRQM

[14] = biological target: T6, human IL-6; experiment: SPR (SensiQ Pioneer), mAb captured on protein G, IL-6 as analyte (3×FLAG-IL-6 or IL-6 CYT-213, 1-100 nM), 25 C, 1:1 model
Experimental: Equilibrium constants for rabbit human chimeric mAbs were determined by binding the mAb to the protein G coated chip followed by binding of each analyte (IL-6 or IL-23) to its respective mAb. In order to minimize mass transfer effects, the surface densities of the mAbs for each analyte were adjusted so that as analyte binding approached saturation its corresponding RU fell between 200 and 300. […] For each binding and dissociation cycle the chip surface was regenerated with 15 uL of 20 mM NaOH (5671-02, Mallinckrodt Baker, Philliphsburg, N.J.). The assay temperature was maintained at 25° C. with an analyte flow rate of 50 μL/min and included a 2 minute association phase and 10-30 minute dissociation phase. The on/off rates (kₐ/kd) and dissociation constants (KD) were determined using the format described above along with pseudo-first-order 1:1 interaction model software (Qdat, ICx Nomadics, Stillwater, Okla.).

[15] = biological target: T6, human IL-6; experiment: cell-based or functional assay; remark: listed apart in the source

B1: 31A12 humanized scFv (mammalian expressed) (scFv)
scFv: DIQLTQSPSFLSASVGDRVTITCQASEDIESYLAWYQQKPGKAPKLLIYSASTLTSGVPSRFSGSGSGTEFTLTISSLQPEDFATYYCLGADDTTTVFGGGTKVEIKGGGGSGGGGSGGGGSGGGGSEVQLVESGGGLVQPGGSLRLSCTASGFSLSSYWMTWVRQAPGKGLEWVGTIATSSTYYASWAKGRFTISRDNSKNTLYLQMNSLRAEDTAVYYCARGLTTDYDLDLWGQGTLVTVSSGPPPPHHHHHH
notes: also called Anti IL-23 31A12 scFv; 31A12 scFv
B1 was tested, and the “IC50 (read off the curve) (interferon-gamma from NK92 cells, OD450)” value [1] was roughly 10 ng/mL, the “EC50, inhibition of IL-23 induced IL-17 secretion by mouse spleen cells” value [2] was 1.37 ng/mL and the “IC50 (read off the curve)” value [3] was roughly 10 ng/mL. The Kd [4] was 92 pM, the koff [4] was 7.11e-05 s⁻¹ and the kon [4] was 773000 M⁻¹ s⁻¹.

B2: 49B7 chimeric mAb (antibody, V domains shown)
VH: QSLEESGGRLVTPGGSLTLTCTVSGIDLSDYDMSWVRQAPGKGLEWIGIVYDIGTIYYAPWAEGRFTISKTSTTVDLKMSSLTTEDTATYFCAREAPGYSDGDIWGPGTLVTVSS
VL: ALVMTQTPSSVSAAVGGTVTINCQASETVDNNKRLSWYQQKPGQPPKLLIYGAATLASGVPSRFKGSGSGAHFTLTISNVQREDAATYVCGGYKDSTDVGFGGGTELEILR
notes: Rabbit/human chimeric IgG (human IgG1, kappa); HEK293
With B2 the “EC50, inhibition of IL-23 induced IL-17 secretion by mouse spleen cells” value [5] was 0.988 ng/mL, the binding result [6] was “binds” and the “IC50 (read off the curve) (IL-17 from mouse splenocytes, OD450)” value (from here on “IC50 … (IL-17 from mouse splenocytes, OD450)”) [7] was roughly 0.6 ng/mL.

B3: 1H1 chimeric mAb (antibody, V domains shown)
VH: QELKESGGRLVTPGGSLTLSCTASGLTLGSYSMTWVRQAPGKGLEWMGVIGVGGTLNYASWAQGRFTISKPSSTTVDLKMTSLTTEDTATYFCARGTYSGDSIWGPGTLVTVSS
VL: DVVMTQTPSSTSAAVGGTVTIKCQASQSISSWLAWYQQKPGQPPKPLIVRASILTSGVPSRFKGSRSGTEYTLTISGVQREDAATYYCLGGDGHVSNFGGGTELEILR
notes: Rabbit/human chimeric IgG (human IgG1, kappa); HEK293; also called mAb 1H1
B3 was tested, and the binding result [8] was “binds”, the binding result [9] was “binds” and the “EC50: concentration necessary to inhibit bioactivity of 50 pg/ml of IL-6” value [5] was 0.603 ng/mL. The “IC50 … (IL-17 from mouse splenocytes, OD450)” value [10] was roughly 1 ng/mL and the “IC50 … (IL-17 from mouse splenocytes, OD450)” value [7] was roughly 1 ng/mL.

B4: 31A12c-PEG20 (scFv)
scFv: DIQLTQSPSFLSASVGDRVTITCQASEDIESYLAWYQQKPGKAPKLLIYSASTLTSGVPSRFSGSGSGTEFTLTISSLQPEDFATYYCLGADDTTTVFGGGTKVEIKGGGGSGGGGSGGGGSGGGGSEVQLVESGGGLVQPGGSLRLSCTASGFSLSSYWLTWVRQAPGKGLEWVGTIATSSTYYASWAKGRFTISRDNSKNTLYLQLNSLRAEDTAVYYCARGLTTDYDLDLWGQGTLVTVSS
modifications: C-terminal azidohomoalanine (Aha) conjugated to 20 kDa linear PEG bis-alkyne
In the case of B4, the “EC50 (pg/mL) of the folded scFv-PEG” value [11] is reported as 1040 pg/mL.

B5: 18D4 chimeric mAb (antibody, V domains shown)
VH: QSVEESGGRLVTPGTPLTLTCTVSGFSLSSYAMTWVRQAPGKGLEWIGTSYVYSGDTWYASWVKGRFTISKTSTTVDLKITSPTTEDTATYFCARVGDYDDYGAHDVFDSWGPGTLVTVSS
VL: YDMTQTPASVEVAVGGTVTIKCQASESISSWLSWYQQKPGQRPKLLLYRASTLASGVSSRFSGSGYGTEFTLTISGVQCEDAATYYCQQGYTGGNVDNAFGGGTKVVVVR
notes: Rabbit/human chimeric IgG (human IgG1, kappa); HEK293; also called 18D4 clone
B5 was tested, and the “EC50, inhibition of IL-6 induced B9 cell proliferation” value [12] was 0.054 ng/mL, the “IC50 (read off the curve) (B9 proliferation, OD570-600)” value [13] was roughly 4 ng/mL and the Kd [14] was 128 pM. The koff [14] was 8.49e-05 s⁻¹ and the kon [14] was 666000 M⁻¹ s⁻¹.

B6: 9C8 Hum scFv v3-2 (scFv)
scFv: DIQMTQSPSSVSASVGDRVTITCQASQSISNELSWYQQKPGKAPKLLIYRTSTLASGVPSRFSGSGSGTDFTLTISSLQPEDFATYYCQQGYNSNDVDNVFGGGTKVEIKGGGGSGGGGSGGGGSGGGGSEVQLVESGGGLVQPGGSLRLSCAASGIDLSSYDMSWVRQAPGKGLEWVGYIYTDSSTYYANWAKGRFTISRDNSKNTLYLQMNSLRAEDTAVYYCARGSTDYAFDTRLDLWGQGTLVTVSSGPPPPPHHHHHH
For B6, the “IC50 (read off the curve) (B9 proliferation, OD570-600)” value [15] was roughly 0.7 ng/mL.
